Test results as given in PMC11006224.

Biological target: human FcRn-b2m protein construct containing an AviTag (human) (UniProt P55899)
Test: BLI

Kd: 14.3 nM
Substance: rituximab IgG1, full length (from UniProt P01857 1-399) (antibody)
